Assay results taken from the supplement of paper PMC10567573.

B1: ZNF449 (parent)
chain: CTHCSKSFRQRAGLIMHQVTHFRG

Variants of: B1
Assay: protein stability index of a GFP-peptide fusion (GPS, HEK-293T) (PSI 1-6); higher = more stable
Conditions: c terminus: a fixed tail appended
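Note: lentivirally expressed fusions sorted by FACS into six bins by GFP to DsRed ratio, PSI derived from sequencing read proportions per bin multiplied by bin number.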

Protein stability index, by site and new letter:
R11: W 1.94; Y 2.29
A12: C 2.29; D 3.09; E 3.82; F 2.25; G 2.44; H 1.88; I 2.36; K 3.49; L 2.11; M 2.25; N 2.06; P 2.69; Q 3.53; R 3.35; T 2.2; V 1.48; W 2.53; Y 1.9
G13: A 2.47; C 1.07; E 3.16; F 1.95; H 1.4; I 1.96; K 2.06; L 1.68; M 2.12; N 2.69; P 1.23; Q 2.87; R 2.65; S 1.52; T 2.36; V 2.58; W 1.87; Y 1.31
L14: C 1.73; D 2.14; E 1.95; F 2.54; G 1.41; H 2; I 1.3; K 2.05; M 1.97; N 1.49; P 1.54; Q 2.02; R 2.01; S 1.9; T 2.09; V 2.37; W 2.05; Y 1.5
I15: A 2.39; D 2.93; E 3.59; F 2.4; G 1.94; H 2.2; K 2.36; M 2.49; N 1.73; P 1.22; Q 2.76; R 2.66; S 3.21; T 2.3; V 3.12; W 2.9; Y 2.44
M16: A 3.98; C 2.64; D 3.52; E 3.85; F 2.18; G 3.45; H 2.43; I 3.24; K 3.55; L 1.98; N 2.86; P 1.65; Q 3.57; R 3.9; S 3.15; T 2.78; V 2; W 1.52; Y 1.57
H17: C 2.29; D 2.46; E 2.36; G 3.28; I 2.52; K 2.24; L 1.69; M 2.44; N 1.43; P 1.03; R 1.82; T 1.47; W 2.12
Q18: A 1.51; C 1.9; D 2.79; E 2.09; F 1.67; G 1.32; H 1.72; I 1.96; K 1.69; L 2.11; M 1.69; N 1.53; P 3.9; R 1.73; S 2.48; T 1.43; V 1.52; W 1.29; Y 3.18
V19: A 2.01; C 3.24; D 1.81; E 3.08; F 2.4; G 2.74; H 1.89; I 2.91; K 3.79; L 2.92; M 2.12; N 2.82; P 1.76; Q 2; R 3.95; S 1.79; T 1.88; W 2.71; Y 2.55
T20: A 2.04; C 1.52; D 2.18; E 1.99; F 2.09; G 2.06; H 2.33; I 2.57; K 2.33; L 1.43; M 1.56; N 2.44; Q 1.83; R 2.14; S 1.45; V 1.73; W 2.09; Y 2.05
H21: A 2.17; C 2.53; E 1.89; F 1.8; G 1.55; I 2.39
